Laboratory results from patent US9127040B2, “Regulation of sodium channels by PLUNC proteins” (The University of North Carolina at Chapel Hill, priority 2011, dated 2015).

Target: T1, αβγENaC (Rattus norvegicus, UniProt P37089+P37090+P37091, R138K/R205K/R231K)
T1 construct: expressed in transfected cells; host or cells: Xenopus laevis oocytes (cRNA injection)
T1 sequence (P37089 1-698 R205K/R231K): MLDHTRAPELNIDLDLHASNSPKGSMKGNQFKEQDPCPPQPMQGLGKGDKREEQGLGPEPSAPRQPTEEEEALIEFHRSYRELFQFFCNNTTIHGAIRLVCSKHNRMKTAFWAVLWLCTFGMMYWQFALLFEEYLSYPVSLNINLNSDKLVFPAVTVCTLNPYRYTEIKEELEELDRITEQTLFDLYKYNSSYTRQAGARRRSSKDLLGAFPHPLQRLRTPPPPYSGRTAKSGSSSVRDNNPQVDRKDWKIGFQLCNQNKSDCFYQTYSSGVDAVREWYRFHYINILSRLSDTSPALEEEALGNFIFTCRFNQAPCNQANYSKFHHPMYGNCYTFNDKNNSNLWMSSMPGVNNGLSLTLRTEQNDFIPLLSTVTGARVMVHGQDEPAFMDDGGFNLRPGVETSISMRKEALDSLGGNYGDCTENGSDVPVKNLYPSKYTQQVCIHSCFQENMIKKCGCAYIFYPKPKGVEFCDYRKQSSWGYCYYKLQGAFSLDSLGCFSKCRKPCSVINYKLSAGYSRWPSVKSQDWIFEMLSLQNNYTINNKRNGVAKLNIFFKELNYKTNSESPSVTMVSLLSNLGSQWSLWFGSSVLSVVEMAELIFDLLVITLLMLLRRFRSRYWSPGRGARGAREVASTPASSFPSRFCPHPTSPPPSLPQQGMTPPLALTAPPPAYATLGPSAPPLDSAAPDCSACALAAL
T1 sequence (P37090 1-638): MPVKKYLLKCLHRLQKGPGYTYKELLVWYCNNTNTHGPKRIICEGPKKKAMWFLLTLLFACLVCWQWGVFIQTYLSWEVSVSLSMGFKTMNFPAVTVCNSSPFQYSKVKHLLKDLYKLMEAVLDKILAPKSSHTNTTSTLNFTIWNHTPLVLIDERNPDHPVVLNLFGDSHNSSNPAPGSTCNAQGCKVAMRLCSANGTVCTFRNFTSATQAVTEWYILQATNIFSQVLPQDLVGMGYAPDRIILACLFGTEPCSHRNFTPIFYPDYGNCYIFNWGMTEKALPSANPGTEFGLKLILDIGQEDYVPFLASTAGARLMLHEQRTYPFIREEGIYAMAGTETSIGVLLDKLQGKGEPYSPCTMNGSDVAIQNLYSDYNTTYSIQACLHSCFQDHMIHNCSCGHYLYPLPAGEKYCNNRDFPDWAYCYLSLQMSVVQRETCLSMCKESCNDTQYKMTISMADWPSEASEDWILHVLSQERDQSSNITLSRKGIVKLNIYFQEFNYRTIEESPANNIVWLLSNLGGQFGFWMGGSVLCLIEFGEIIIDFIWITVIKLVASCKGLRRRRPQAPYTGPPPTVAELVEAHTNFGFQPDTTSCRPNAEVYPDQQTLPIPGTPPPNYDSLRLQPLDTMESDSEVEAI
T1 sequence (P37091 1-650 R138K): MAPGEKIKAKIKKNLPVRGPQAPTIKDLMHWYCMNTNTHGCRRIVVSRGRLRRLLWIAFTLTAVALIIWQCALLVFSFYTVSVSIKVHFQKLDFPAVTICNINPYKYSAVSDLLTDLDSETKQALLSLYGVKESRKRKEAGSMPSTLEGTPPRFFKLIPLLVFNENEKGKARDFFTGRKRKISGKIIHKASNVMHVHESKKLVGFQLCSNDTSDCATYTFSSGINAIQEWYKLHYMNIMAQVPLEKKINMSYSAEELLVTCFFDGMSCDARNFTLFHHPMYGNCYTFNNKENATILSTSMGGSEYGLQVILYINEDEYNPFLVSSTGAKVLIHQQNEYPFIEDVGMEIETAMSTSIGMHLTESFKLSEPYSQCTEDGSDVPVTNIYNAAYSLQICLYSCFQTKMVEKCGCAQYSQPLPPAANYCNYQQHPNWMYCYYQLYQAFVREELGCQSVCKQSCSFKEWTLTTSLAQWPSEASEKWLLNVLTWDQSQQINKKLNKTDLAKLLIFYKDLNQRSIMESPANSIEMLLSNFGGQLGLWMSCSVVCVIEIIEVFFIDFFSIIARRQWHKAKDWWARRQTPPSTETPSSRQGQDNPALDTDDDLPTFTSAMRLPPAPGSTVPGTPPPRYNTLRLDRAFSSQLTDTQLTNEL
Experiment: Amiloride-sensitive whole cell current, two electrode voltage clamp, Xenopus laevis oocytes expressing αβγENaC
Assay type: cell-based
Settings: SPLUNC1 co-expressed

B1: SPLUNC1: human SPLUNC1 (SEQ ID NO:1), 256 amino acid secreted PLUNC family protein; rSPLUNC1 is the purified V5/6His-tagged recombinant form (protein, listed as Homo sapiens)
chain: MFQTGGLIVFYGLLAQTMAQFGGLPVPLDQTLPLNVNPALPLSPTGLAGSLTNALSNGLLSGGLLGILENLPLLDILKPGGGTSGGLLGGLLGKVTSVIPGLNNIIDIKVTDPQLLELGLVQSPDGHRLYVTIPLGIKLQVNTPLVGASLLRLAVKLDITAEILAVRDKQERIHLVLGDCTHSPGSLQISLLDGLGPLPIQGLLDSLTGILNKVLPELVQGNVCPLVNEVLRGLDITLVHDIVNMLIHGLQFVIKV
modifications: V5/6His tag in recombinant form
notes: rSPLUNC1 is the purified V5/6His-tagged recombinant form
With B1 the “current of furin-insensitive αR205,231K,β,γR138K ENaC mutant” value was “also inhibited”.
